For one data set, the system named is brain of C57BL/6 mice. As to the kind of experiment: Brain clearance index. It is filed as in vivo, mouse.
Data set [1] in a line: Integrity of 125I-Aβ40 in media without cells. The class given is physicochemical. The settings on record: 0.1 nM 125I-Aβ40 in media without cells.
Data set [2] concerns bEnd3 cells.
For data set [3], the system named is hCMEC/D3 cells.
Data set [4] has as its system bEnd3 cells. This is another data set of the same source.
The subject of data set [5] is hCMEC/D3 cells. The source holds these as a separate data set.
The test system of data set [6] is bEnd3 cells. The source holds these as a separate data set.
The next data set relates to human brain. The settings on record: ref Mawuenyega et al., 2010, cited from earlier work.
A further data set concerns mouse brain. The settings on record: ref Barten et al., 2005, Cirrito et al., 2003, cited from earlier work.
A further data set deals with brain. The settings on record: ref Shibata et al., 2000; cited from earlier work.
Data set [7] concerns bEnd3 cells. As to the kind of experiment: Aβ40 degradation in bEnd3 cells with IDE or neprilysin inhibitor. The settings on record: bEnd3, thiorphan 2 mM. The class given is cell-based, mouse.
Data set [8] relates to hCMEC/D3 cells. Briefly: Aβ40 degradation in hCMEC/D3 cells with IDE or neprilysin inhibitor. The settings on record: hCMEC/D3, thiorphan 2 mM. It is filed as cell-based, human.
For a further data set, the system named is BBB. The settings on record: ref Ito et al., 2006; cited from earlier work.

Like-named read-outs stand apart in the source and are kept apart here.

“125I-Aβ40: radioiodinated amyloid-β 40 peptide tracer (PerkinElmer)”: the “BCITotal(%), total brain clearance (BBB efflux + degradation)” value in the data set with brain of C57BL/6 mice (mouse) stood at 58.7±3.9%. In addition, in the data set with brain of C57BL/6 mice (mouse, in vivo), the “BCIBBB(%), clearance across BBB” value was 35.6±3.3%; the “BCIDegradation(%), clearance by brain degradation” value turned out to be 23.1±2.3%; the “clearance across BBB as share of BCITotal(%)” value turned out to be 62%. Further, in data set [1] (12 h, 16% bis-tris gel electrophoresis), the “dimer or higher oligomer formation” value is on record as “absence of dimers or higher oligomer formation”. Besides, in [1] (investigated time points), the “dissociation of 125I from Aβ40” value is reported as “insignificant dissociation”. In the data set with bEnd3 cells [2] (bEnd3, RAGE-IgG 5 µg/ml, 0.1 nM, 15 min, P>0.05), the “effect of RAGE inhibition on 125I-Aβ40 degradation” value was “not altered”. In addition, the “effect of RAGE inhibition on 125I-Aβ40 degradation” value in the data set on hCMEC/D3 cells [3] (hCMEC/D3, RAGE-IgG 5 µg/ml, 0.1 nM, 12 h, P>0.05) is recorded as “not altered”. In addition, the “effect of inhibition of RAGE, P-gp, or LRP1 on degradation during transport” value with bEnd3 cells [4] (bEnd3, either direction, RAGE-IgG 5 µg/ml, valspodar 5 µM or RAP 1 µM, 30 min) was “did not affect”. The “effect of inhibition of P-gp on A→B transport” value with bEnd3 cells [4] (bEnd3, valspodar 5 µM pre- and co-incubated, 0.1 nM, 30 min) is on record as “no alteration”. Moreover, the “effect of inhibition of RAGE, P-gp, or LRP1 on degradation during transport” value in the data set with hCMEC/D3 cells [5] (hCMEC/D3, either direction, RAGE-IgG 5 µg/ml, valspodar 5 µM or RAP 1 µM, 12 h) is “did not affect”. Moreover, the “Intrinsic uptake (Vmax/Km)” value with bEnd3 cells [6] is 2848 nL/min.

On to “Aβ40: amyloid-β peptide Aβ40, by-product of proteolytic degradation of amyloid precursor protein”, for which the “effect of P-gp inhibition on brain degradation” value in the data set with brain of C57BL/6 mice (valspodar 40 µM intracerebral, 30 min, NS in Figure 1C) is “without altering”. For the same molecule, the figures for the “Aβ40 cleared from the brain per hour” value in the data set with human brain (cognitively normal individuals) and in the data set on human brain (patients with AD) were “about 7%” and 5.2%, respectively. Moreover, the “corresponding half-life of Aβ40 in brain” value is ~ 10 h in the data set with human brain (cognitively normal individuals) and ~ 13 h with human brain (patients with AD). In addition, the “half-life of human Aβ40 in mouse brain” value is on record as 2 h in the data set with mouse brain (PDAPP mice) and 0.63 h in the data set on mouse brain (Tg2576 mice). Also, the “contribution of CSF flow to overall brain Aβ40 clearance” value in the data set on brain was 10–15%.

On to `O=C(O)CNC(=O)C(CS)Cc1ccccc1` (centres unmarked) [thiorphan], for which the “effect of neprilysin inhibition on Aβ40 degradation” value with bEnd3 cells [7] and with hCMEC/D3 cells [8] was “did not show any significant effect” in each case.

In the case of “Aβ42: amyloid-β peptide Aβ42, prone to rapid aggregation”, the “clearance across the BBB compared to Aβ40” value in the data set on BBB is reported as “slower”.

For the molecule valspodar, in the data set on bEnd3 cells [2] (bEnd3, valspodar 5 µM pre- and co-incubated, 0.1 nM 125I-Aβ40, 15 min, P>0.05), the “change in 125I-Aβ40 accumulation (P-gp inhibition)” value was “did not cause any significant change”. Also, the “effect of P-gp inhibition on 125I-Aβ40 degradation” value with bEnd3 cells [2] (bEnd3, valspodar 5 µM, 0.1 nM 125I-Aβ40, 15 min, P>0.05) is “no effect”; with hCMEC/D3 cells [3] (hCMEC/D3, valspodar 5 µM, 0.1 nM 125I-Aβ40, 12 h, P>0.05), “no effect”.

B1: RAP: an LRP1 inhibitor (receptor-associated protein; Oxford Biomedical Research) (protein, UniProt P30533 35-357, looked up)
Alpha-2-macroglobulin …: YSREKNQPKPSPKRESGEEFRMEKLNQLWEKAQRLHLPPVRLAELHADLKIQERDELAWKKLKLDGLDEDGEKEARLIRNLNVILAKYGLDGKKDARQVTSNSLSGTQEDGLDDPRLEKLWHKAKTSGKFSGEELDKLWREFLHHKEKVHEYNVLLETLSRTEEIHENVISPSDLSDIKGSVLHSRHTELKEKLRSINQGLDRLRRVSHQGYSTEAEFEEPRVIDLWDLAQSANLTDKELEAFREELKHFEAKIEKHNHYQKQLEIAHEKLRHAESVGDGERVSRSREKHALLEGRTKELGYTVKKHLQDLSGRISRARHNEL
B1: the “decrease of cellular level of intact 125I-Aβ40 (LRP1 inhibition)” value with bEnd3 cells [2] (bEnd3, RAP 1 µM pre- and co-incubated, 0.1 nM 125I-Aβ40, 15 min, P<0.001) is recorded as 67%; with hCMEC/D3 cells [3] (hCMEC/D3, RAP 1 µM pre- and co-incubated, 0.1 nM 125I-Aβ40, 12 h, P<0.001), 42%. The “decrease of 125I-Aβ40 degradation (LRP1 inhibition)” value with bEnd3 cells [2] (bEnd3, RAP 1 µM, 0.1 nM 125I-Aβ40, 15 min, P<0.01) is 24%; with hCMEC/D3 cells [3] (hCMEC/D3, RAP 1 µM, 0.1 nM 125I-Aβ40, 12 h, P<0.01) it was 28%. Also, the “decrease of intact 125I-Aβ40 transport B→A (LRP1 inhibition)” value with bEnd3 cells [4] (bEnd3, RAP 1 µM pre- and co-incubated, 0.1 nM 125I-Aβ40, 30 min, P<0.01) is listed as 42%; with hCMEC/D3 cells [5] (hCMEC/D3, RAP 1 µM pre- and co-incubated, 0.1 nM 125I-Aβ40, 12 h, P<0.01) it was 42%.

Source of the values: publication PMC3965363 (Neuropharmacology, 2014).
